Assay results: patent US20040214992A1, “Mutation induced optimization of receptor signal to noise ratio” (priority 2001, published 2004)
Substitutions are numbered along the chain they refer to.

Tests used:
[1] = test system: CCR-3 receptor; test: SRE-Luc + Gq5i luciferase reporter assay, wild-type or mutant CCR-3 receptor; assay type: cell-based, human; settings: luciferase activity; for Ligand-stimulated Activity / Basal Activity: average of 5 experiments; for Basal Activity: no ligand
Source text: (§1) Alternatively, Gαi coupling can also be measured using a positive assay (i.e., one that yields an increase in activity upon receptor activation), instead of a negative assay (i.e., one that yields a decrease in activity upon receptor activation). This assay provides a more detectable output signal and less interassay variation. In one such assay, a chimeric G protein (Gq5i, Broach and Thomer, Nature 384 (Suppl.):14-16 (1996)) that contains the entire Gαq protein having the five C-terminal amino acids from Gαi attached to the C-terminus of Gαq is used. This chimeric G protein is recognized as Gαi by Gαi coupled receptors, but switches the receptor induced signaling from Gαi to Gαq. This allows Gαi receptor coupling to be detected using a positive assay by use of a Gαq responsive SMS-Luc or SRE-Luc construct (Stratagene, La Jolla, Calif.). SMS and SRE preferably respond to Gαq mediated inositol and calcium production. Moreover, detection can be carried out in the absence of forskolin pre-stimulation of cells.
(§2) The basal activity of the Tyr235Glu mutant CCR-3 receptor was assessed using a luciferase assay. The CCR-3 receptor is a Gαi coupled receptor. Therefore, we chose to use the SRE-Luc+Gq5i reporter system, described in detail above (Broach and Thorner, supra), which switches the signaling pathway from Gαi to Gαq for reliable positive readout. The luciferase assay was carried out as described above for the serotonin 2A receptor.

[2] = biological target: T1, CCR-3 receptor (Homo sapiens, UniProt P51677, Y235E); test: as above; assay type: cell-based; settings: basal activity of mutant vs wild-type
T1 construct: expressed in transfected cells; host or cells: HEK293 (inferred: assay 'as described above for the serotonin 2A receptor')
T1 sequence (P51677 1-355 Y235E): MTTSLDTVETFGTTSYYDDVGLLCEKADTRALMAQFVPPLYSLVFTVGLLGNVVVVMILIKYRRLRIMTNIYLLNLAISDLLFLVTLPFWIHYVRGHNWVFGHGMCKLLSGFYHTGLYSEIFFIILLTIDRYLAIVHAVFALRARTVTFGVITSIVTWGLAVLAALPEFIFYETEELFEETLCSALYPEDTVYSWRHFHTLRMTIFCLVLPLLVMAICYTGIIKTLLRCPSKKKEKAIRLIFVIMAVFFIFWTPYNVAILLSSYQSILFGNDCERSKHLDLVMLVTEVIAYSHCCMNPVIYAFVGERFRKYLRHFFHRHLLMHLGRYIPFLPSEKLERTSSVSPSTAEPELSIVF
Source text: as §1, §2

B1: Lys323Glu CCR-3: silenced mutant CCR-3 receptor with Tyr to Glu substitution at position 235 of SEQ ID NO: 2 (protein, UniProt P51677 1-355, looked up, variant Y235E)
C-C chemokine receptor type 3: T1 sequence (P51677 1-355 Y235E)
B1 was tested, and the “Stimulated/Basal Ratio” value [1] was 12, the “Ligand-stimulated Activity” value [1] was 151,445 and the “Basal Activity” value [1] was 12,626. For the same molecule, the “basal activity compared to wild-type receptor (in words)” value [2] was “decrease in basal activity”.

B2: wild-type CCR-3: wild-type CC chemokine receptor 3 (CCR-3), G protein-coupled receptor, SEQ ID NO: 2 (protein, UniProt P51677 1-355, looked up)
C-C chemokine receptor type 3: T1 sequence (P51677 1-355 Y235E) with E235Y
In the case of B2, the “Stimulated/Basal Ratio” value [1] is reported as 4.7, the “Ligand-stimulated Activity” value [1] is reported as 157,389 and the “Basal Activity” value [1] is reported as 33,177.
